# Assay results reported in patent US20250376500A1.
# Target: IGF-1 receptor (IGF1R) on DU145 cells and on immortalized human meibomian gland epithelial cells (human) (UniProt P08069)
# Experiment: cell-based or functional assay
# Sequence of IGF-1 receptor (IGF1R) on DU145 cells and on immortalized human meibomian gland epithelial cells (human) (P08069 31-1367): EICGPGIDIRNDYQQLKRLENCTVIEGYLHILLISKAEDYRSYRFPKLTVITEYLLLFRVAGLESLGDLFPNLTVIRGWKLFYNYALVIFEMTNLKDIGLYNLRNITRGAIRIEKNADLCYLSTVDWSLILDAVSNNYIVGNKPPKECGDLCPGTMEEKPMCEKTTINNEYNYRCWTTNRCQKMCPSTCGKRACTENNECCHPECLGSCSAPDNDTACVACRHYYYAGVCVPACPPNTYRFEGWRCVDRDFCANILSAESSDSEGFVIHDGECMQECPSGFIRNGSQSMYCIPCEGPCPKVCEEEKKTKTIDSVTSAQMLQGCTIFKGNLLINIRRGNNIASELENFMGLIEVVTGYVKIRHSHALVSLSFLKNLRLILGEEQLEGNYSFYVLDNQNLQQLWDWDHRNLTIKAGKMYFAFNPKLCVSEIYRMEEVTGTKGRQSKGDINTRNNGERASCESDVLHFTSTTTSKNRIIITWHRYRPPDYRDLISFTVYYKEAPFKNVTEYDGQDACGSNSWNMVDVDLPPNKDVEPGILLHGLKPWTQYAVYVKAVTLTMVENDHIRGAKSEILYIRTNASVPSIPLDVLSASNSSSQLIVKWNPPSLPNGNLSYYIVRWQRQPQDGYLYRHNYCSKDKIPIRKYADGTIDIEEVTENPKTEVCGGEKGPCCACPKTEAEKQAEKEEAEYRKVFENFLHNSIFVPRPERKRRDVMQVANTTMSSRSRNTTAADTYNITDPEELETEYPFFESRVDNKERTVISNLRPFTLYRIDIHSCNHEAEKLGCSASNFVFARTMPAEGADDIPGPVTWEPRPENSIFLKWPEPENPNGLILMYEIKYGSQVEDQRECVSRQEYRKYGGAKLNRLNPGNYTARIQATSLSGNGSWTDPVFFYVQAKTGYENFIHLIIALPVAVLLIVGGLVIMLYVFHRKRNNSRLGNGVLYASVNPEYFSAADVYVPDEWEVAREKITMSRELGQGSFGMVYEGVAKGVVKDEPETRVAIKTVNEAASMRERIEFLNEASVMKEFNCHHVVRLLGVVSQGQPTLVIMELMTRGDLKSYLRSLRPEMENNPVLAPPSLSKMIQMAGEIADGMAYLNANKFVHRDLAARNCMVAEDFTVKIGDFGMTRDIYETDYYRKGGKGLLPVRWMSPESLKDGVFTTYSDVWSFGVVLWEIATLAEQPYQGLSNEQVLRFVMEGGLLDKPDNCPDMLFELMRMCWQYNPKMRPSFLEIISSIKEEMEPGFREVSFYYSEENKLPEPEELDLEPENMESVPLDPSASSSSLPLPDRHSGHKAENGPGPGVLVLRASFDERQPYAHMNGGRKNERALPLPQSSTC
row,Substance,EC50 of AKT S473 phosphorylation in DU145 cells [nM]
1,IGF-1 Des1-3 (SEQ ID NO: 8) (ligand),2.3
2,IGF-1 E3R (SEQ ID NO: 4) (from UniProt P05019 49-118) (ligand),4.5
3,IGF-1 Ea (SEQ ID NO: 7) (from UniProt P17647 26-130) (ligand),8.7
